From US20250090583A1

Experiments:
[1] = target: MART-1 peptide … (ELA) presented by HLA-A2 on peptide-pulsed T2 cells; experiment: cell-based or functional assay
[2] = target: CD3 of the TCR-CD3 complex on human T cells (human) (UniProt P07766); experiment: cell-based or functional assay

| Substance | NFAT-GFP in Jurkat cells co-cultured overnight with ELA-pulsed T2 cells, against WT Jkt-DMF5 [1] [% reduction] | NFAT-GFP in Jkt-DMF5FATADALN cells co-cultured with Raji (CD19+) cells and blinatumomab, against WT Jkt-DMF5 [2] [% reduction] | NFAT-GFP in Jkt-DMF5GGGSGSG cells co-cultured with Raji (CD19+) cells and blinatumomab, against WT Jkt-DMF5 [2] [% reduction] |
| --- | --- | --- | --- |
| DMF5 TCR with alpha chain connecting peptide motif mutated to GGGSGSG | 50 | – | – |
| blinatumomab (bispecific antibody) | – | < 80 | < 80 |
